What all share (settings): both partners purified
Assay [1] deals with T1, PHD1 (KDM5C residues 318–378) (human, UniProt P41229-1 318-378).
T1 construct: KDM5C, human, PHD1 domain, residues 318-378; 15N-labelled (or 15N,13C) for NMR; also called PHD1 domain of KDM5C; source: E. coli BL21(DE3), M9 minimal medium, purified (Ni-NTA, MonoQ flow-through); not shown: 6xHis, N-terminal, cleaved; SUMO (Smt3), N-terminal, cleaved
T1 sequence (looked up): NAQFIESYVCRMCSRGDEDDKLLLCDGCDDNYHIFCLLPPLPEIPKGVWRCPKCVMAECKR
In words: NMR titration; 2D 1H-15N HSQC of 200 μM 15N-PHD1 with increasing peptide up to 1:5 PHD1:peptide; 50 mM HEPES pH 7.5, 50 mM KCl, 5 mM BME, 50 μM ZnCl2, 5% D2O, 298 K; Kd from chemical shift change of one residue (I361 or D343), quadratic binding equation.

The target in a further assay is T2, PHD1 D343A mutant (human, UniProt P41229-1 318-378, D343A).
T2 construct: KDM5C, human, PHD1 domain, residues 318-378 (limits as told for wild-type PHD1)
T2 sequence (looked up): T1 sequence (looked up) with D26A
Described as above.

In the next assay the target is T3, Avitag-PHD1 (human, UniProt P41229-1 318-378, biotin on the Avitag (BirA co-expression)).
T3 construct: KDM5C, human, PHD1 domain, residues 318-378; 6xHis-SUMO-Avitag-(GS)2-PHD1 before cleavage by SenP1; also called biotinylated Avitag-PHD1; Avitag-(GS)2-PHD1; source: E. coli BL21(DE3), co-expressed with BirA, purified (Ni-NTA, MonoQ flow-through); not shown: 6xHis, N-terminal, cleaved; SUMO (Smt3), N-terminal, cleaved; Avitag-(GS)2, N-terminal, kept
T3 sequence (looked up): T1 sequence (looked up)
Description: BLI; biotinylated Avitag-PHD1 (100 nM) loaded on streptavidin biosensors; 100 μM peptide; 50 mM HEPES pH 8, 50 mM KCl, 50 μM ZnCl2, 5 mM BME, 0.05% Tween-20; 25 °C; two phase exponential fit.

Positions count from the first letter of the chain named. No end group written: not given here. Me3 = trimethyl; Me2 = dimethyl

B1: H3K4me1 (1–18) peptide (peptide, UniProt P68431 2-19, looked up)
peptide: ARTK(Me)QTARKSTGGKAPRK
notes: histone H3 N-terminal tail, residues 1-18; source: synthetic peptide (GenScript)
On to B1, for which the binding result in assay [1] is “binds”.

B2: H3K4me2 (1–18) peptide (peptide, UniProt P68431 2-19, looked up)
peptide: ARTK(Me2)QTARKSTGGKAPRK
notes: as for B1
Regarding B2, the binding result in assay [1] was “binds”.

B3: H3 (1–18) tail peptide (peptide, UniProt P68431 2-19, looked up)
peptide: ARTKQTARKSTGGKAPRK
notes: histone H3 N-terminal tail, residues 1-18; also called H3 (1–18) peptide; H3K4me0 (1–18); source: synthetic peptide (GenScript)
Usually Kd stands for the free concentration of one partner at which half of the binding sites on the other are occupied at equilibrium, for simple one-to-one binding. Consider B3, for which the dissociation constant (Kd) in assay [1] was 130 µM. Also, the “fold decrease in affinity against wild-type PHD1” value with PHD1 D343A mutant was not below 10 fold. As for Ac-QSVQPSKFNSYGRRAKRLQP-NH2 (source: synthetic peptide (GenScript)) [KDM5C (199–218) peptide], the “fold lower affinity than the H3 tail” value in assay [1] is approximately 3 fold.

B4: KDM5C (295–314) peptide (peptide)
peptide: Ac-KEELSHSPEPCTKMTMRLRR-NH2
notes: KDM5C, human, ARID-PHD1 linker, residues 295-314; source: synthetic peptide (GenScript)
Regarding B4, the binding result in the assay with Avitag-PHD1 is given as “binds”.

B5: H3K4me3 (1–18) peptide (peptide, UniProt P68431 2-19, looked up)
peptide: ARTK(Me3)QTARKSTGGKAPRK
notes: as for B1
On to B5, for which the binding result in assay [1] is recorded as “binds”.

For the origin of these results see PMC10247153, “Chromatin Sensing by the Auxiliary Domains of KDM5C Regulates Its Demethylase Activity and Is Disrupted by X-linked Intellectual Disability Mutations” (Journal of molecular biology, 2022).
